Reference: publication PMC3773880

Legend:
[1] = target: high molecular weight gingipain R (HRgpA) (Porphyromonas gingivalis); assay: enzyme inhibition kinetics
[2] = target: low molecular weight gingipain R (RgpB) (Porphyromonas gingivalis) (UniProt P95493); assay: enzyme inhibition kinetics
[3] = target: high molecular weight gingipain R (HRgpA) (Porphyromonas gingivalis)

Row | Substance | Ki [2] [nM] | further results
1 | PD_(RgpA), recombinant N-terminal prodomain of RgpA (from UniProt P28784 24-227) (domain or fragment) | – | Ki [1]: 0.85 nM
2 | PD_(RgpB) R66A (domain or fragment) | 4.9 | –
3 | PD_(RgpB) R66K (domain or fragment) | 31 | –
4 | PD_(RgpB) R102A (domain or fragment) | > 5000 | –
5 | PD_(RgpB) R102E (domain or fragment) | > 5000 | –
6 | PD_(RgpB) R102K (domain or fragment) | 45.6 | –
7 | PD_(RgpB) R102Q (domain or fragment) | > 5000 | –
8 | PD_(RgpB) R159K (domain or fragment) | 7.7 | –
9 | PD_(RgpB), recombinant N-terminal prodomain of RgpB (from UniProt P95493 25-229) (domain or fragment) | – | IC50 of inhibition of amidolytic activity (L-BAPNA), 10 nM enzyme [3]: 12.6 nM; IC50 of inhibition of aminopeptidase activity (H-Arg-AMC), 10 nM enzyme [3]: 4.9 nM; IC50 of inhibition of proteolytic activity (Azocoll), 10 nM enzyme [3]: 5.8 nM; Ki [1]: 5.3 nM
